Measured values as given in patent US6617117.

Tests used:
human GST-SAPK4 = test system: T1, human GST-SAPK4
T1 sequence: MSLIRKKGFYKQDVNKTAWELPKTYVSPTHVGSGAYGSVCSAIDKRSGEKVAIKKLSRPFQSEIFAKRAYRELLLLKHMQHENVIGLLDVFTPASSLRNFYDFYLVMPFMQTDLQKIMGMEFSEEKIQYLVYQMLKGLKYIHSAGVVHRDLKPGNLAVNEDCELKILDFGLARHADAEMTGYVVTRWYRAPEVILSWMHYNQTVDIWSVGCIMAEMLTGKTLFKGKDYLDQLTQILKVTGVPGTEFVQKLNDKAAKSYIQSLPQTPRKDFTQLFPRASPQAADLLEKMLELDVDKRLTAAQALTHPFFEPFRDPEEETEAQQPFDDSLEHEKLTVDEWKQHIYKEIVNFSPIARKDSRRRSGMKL

[1] = molecular target: SAPK3 (untagged, transfected) (rat) (UniProt Q63538); experiment: cell-based or functional assay
Sequence of SAPK3 (untagged, transfected) (rat) (Q63538 whole entry): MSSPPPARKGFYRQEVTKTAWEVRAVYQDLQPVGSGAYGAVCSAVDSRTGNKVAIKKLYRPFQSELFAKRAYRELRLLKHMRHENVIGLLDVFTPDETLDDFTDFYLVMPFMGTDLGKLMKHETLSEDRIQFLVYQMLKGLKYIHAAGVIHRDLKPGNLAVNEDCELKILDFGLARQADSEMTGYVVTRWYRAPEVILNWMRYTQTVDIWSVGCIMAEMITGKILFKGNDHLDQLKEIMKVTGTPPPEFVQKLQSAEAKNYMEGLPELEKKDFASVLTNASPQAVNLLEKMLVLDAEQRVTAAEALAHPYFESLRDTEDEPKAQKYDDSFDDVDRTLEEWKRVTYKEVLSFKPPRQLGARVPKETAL

[2] = molecular target: c-myc epitope-tagged SAPK4 (human) (UniProt O15264); experiment: cell-based or functional assay

SAPK3 activity (MBP phosphorylation) after cotransfection into COS cells [1] [fold]	activation of transfected SAPK3 by osmotic shock in cells cotransfected with SKK3 [1] [fold]	SAPK4 activity (MBP phosphorylation) after co-transfection into COS cells [2] [fold]	Substance	phosphorylation and activation of SAPK4 in vitro (human GST-SAPK4)
			SKK1 (MKK4)	SAPK4 is phosphorylated and activated by SKK1 in vitro, but at a much slower rate than SAPK2a under identical conditions
10	30	12.5	human SKK3 (transfected, pcDNA3.1) (from UniProt P52564 1-334) (enzyme)	
